Results as given in PMC8956632.

Target: 5-HT1AR-Rluc (UniProt P08908)
Assay: BRET
Details: HEK293 cells, basal (no agonist); parent: est. 0.27; read off a plot

OX1R-EGFP, sequence (O43613 whole entry, stated change not applied): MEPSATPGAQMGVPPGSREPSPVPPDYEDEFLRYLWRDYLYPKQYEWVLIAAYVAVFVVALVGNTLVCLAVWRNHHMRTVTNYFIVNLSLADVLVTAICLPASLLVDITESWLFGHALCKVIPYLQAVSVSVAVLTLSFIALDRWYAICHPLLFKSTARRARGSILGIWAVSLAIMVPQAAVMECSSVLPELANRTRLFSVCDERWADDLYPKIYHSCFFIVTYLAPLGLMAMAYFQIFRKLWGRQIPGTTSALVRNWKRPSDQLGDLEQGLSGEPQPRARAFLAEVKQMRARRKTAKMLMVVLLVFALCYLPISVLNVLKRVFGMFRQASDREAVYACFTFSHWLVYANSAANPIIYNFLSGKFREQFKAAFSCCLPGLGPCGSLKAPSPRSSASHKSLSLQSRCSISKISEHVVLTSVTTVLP
5-HT1AR-Rluc, sequence (P08908 whole entry): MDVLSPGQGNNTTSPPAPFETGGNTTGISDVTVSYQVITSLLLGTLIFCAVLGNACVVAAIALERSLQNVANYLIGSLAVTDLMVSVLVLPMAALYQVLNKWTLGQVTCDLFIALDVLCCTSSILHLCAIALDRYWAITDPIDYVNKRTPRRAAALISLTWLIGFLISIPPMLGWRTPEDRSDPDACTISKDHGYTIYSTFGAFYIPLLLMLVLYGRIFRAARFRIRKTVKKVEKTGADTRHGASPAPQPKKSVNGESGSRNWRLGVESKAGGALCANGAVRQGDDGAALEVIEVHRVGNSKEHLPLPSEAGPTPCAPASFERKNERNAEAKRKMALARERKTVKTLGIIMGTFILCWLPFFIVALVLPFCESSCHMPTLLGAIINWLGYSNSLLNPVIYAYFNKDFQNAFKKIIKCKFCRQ

Substance: OX1R-EGFP (from UniProt O43613) L168A
- response: 0.27
